{"source": "paper PMC2120674", "key": {"[1]": {"target": "human urokinase-type plasminogen activator receptor (uPAR) expressed in mouse LB6 clone 19 cells (human) (UniProt Q03405)", "sequence (Q03405 23-305)": "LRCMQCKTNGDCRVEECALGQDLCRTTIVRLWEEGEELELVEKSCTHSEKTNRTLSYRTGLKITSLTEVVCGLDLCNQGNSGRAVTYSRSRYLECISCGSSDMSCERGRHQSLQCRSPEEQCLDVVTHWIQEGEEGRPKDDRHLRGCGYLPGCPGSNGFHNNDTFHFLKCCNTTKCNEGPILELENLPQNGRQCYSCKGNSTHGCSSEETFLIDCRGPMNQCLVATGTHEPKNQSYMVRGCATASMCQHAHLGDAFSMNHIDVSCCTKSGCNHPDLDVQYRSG", "experiment": "radioligand binding"}, "[2]": {"target": "two chain urokinase-type plasminogen activator (uPA)", "experiment": "SDS-PAGE of the protease-serpin complex"}}}
{"substance": "uPA-PAI-1 complex (urokinase with plasminogen activator inhibitor type-1) (from UniProt P05121 24-402)", "values": [{"measurement": "bound radioactivity at 4C (with cycloheximide)", "setting": "[1]", "value": 19.4, "unit": "fmol/well"}, {"measurement": "bound radioactivity at 4C (without cycloheximide)", "setting": "[1]", "value": 18.7, "unit": "fmol/well"}]}
{"substance": "plasminogen activator inhibitor type-1 (PAI-1), recombinant active (from UniProt P05121 24-402) (natural protein)", "values": [{"measurement": "percent of uPA converted to the complex form", "setting": "[2]", "value": "> 90", "unit": "%"}]}
